From patent publication US20100261660A1 (published 2010)

Target: T1, Soluble CTLA-4-Ig (extracellular domain of human CTLA-4 fused to the Fc portion of human IgG1) (human, UniProt P16410 36-161, FITC-conjugated in the FACS binding assays)
T1 construct: extracellular domain; bought from R&D Systems; also called sCTLA-4-Ig; CTLA-4-Ig Fc; not shown: Fc portion of human IgG1
Experiment: competitive FACS on transfected cells, FITC-sCTLA-4-Ig with biotin-sCD28-Ig; grade 0-2 of CTLA-4/CD28 ratio vs WT hB7-1

T1 sequence (P16410 36-161): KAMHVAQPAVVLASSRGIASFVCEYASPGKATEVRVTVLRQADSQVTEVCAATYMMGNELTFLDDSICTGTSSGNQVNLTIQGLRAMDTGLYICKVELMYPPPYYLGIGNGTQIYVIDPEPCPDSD

Binder	Binding Score
Round 2 CTLA4BP 2x4-g9 (ligand) VIHVTKEVKEVATLSCGHNVSVEELAQTRIYWQKDKKMVLTMMSGDMNIWPEYKNQTIFDITNNLSIVILALRPSDEGTYECVVLKYEKDAFKQEHLAEVMLSVKADFPTPSISDFEIPPSNIRRIICSTSGGFPEPRLAWMEDGEELNAISTTVSQDPGTELCTVSSKLDFNMTTNHSFMCLIRYGHLRVNQTFNWNTPKQEHFPDNLLPSWAITLISVKGIFVICCLTYCFAPRGRERKSNGRLRRESVHPV	1
Round 2 CTLA4BP 2x1-e2 (ligand) VIHVTKEVKEVATLSCGHNVSDEELAQTRIHWQKEKKMVLTMMSGDMNIWPEYKNRTIFDITNNLSIVILALRPSDEGTYECVVLKYEKDAFKREHLAEVTLSVKADFPTPSISDFEIPPSNIRRIICSTSGGFPEPHLSWLENGEELNAINTTVSQDPGTELYTVSSKLDFNMTTNHSFMCLIKYGHLRVNQTFNWNTPKQEHFPDNLLPSAITLISANGIFVICCLTYCFAPRCRERRRNERLRRESIHPV	1
Round 2 CTLA4BP 2x1-c9 (ligand) VIHVTKEVKEVATLSCGHNVSAEELAQTRIYWQKEKKMVLTMMSGDMNIWPEYKNRTIFDITNNLSIVILALRPSDEGTYECVVLEYEKDAFKREHLAEVMLSVKADFPTPSITDFEIPTSNIRRIICSTSGGFPEPRLAWMEDGEELNAISTTASQDPETELYTVSSKLDFNMTTNHSFMCLIKYGHLRVNQTFNWNTPKQEHFPDNLLPSWAITLISVNGIFVICCLTHCFAPRCRERRRNERLRRESVCPV	1
Round 2 CTLA4BP-5x2-7b (ligand) VIHVTKEVKEVATLSCGHNVSVEELAQTRIHWQKEKKMVLTMMSGDMNIWPEYKNRTIFDITNNLSIVILALRPSDEGTYECVVLKYEKDAFKREHLAEVTLSVKAGFPTPSITDFEIPPSNIRRIICSTSGGFPEPHLSWLENGEELNAINTTVSQDPGTELYTVSSKLDFNMTANHSFVCLIKYGHLRVNQTFNWNTPKQEHFPDNLLPSWAITLISANGIFVICCLTYCFAPRCRERRRNERLRRESVRPV	1
Round 2 CTLA4BP-5x2-8c (ligand) VIHMTKEVKEVATLSCGHNVSVEELAQTRIYWQKEKKMVLTMMSGDMNIWPEYKNRTIFDITNNLSIVILALRPSDEGTYECVVLKYEKDAFKQEHLAEVMLSVKADFPTPSITDFEIPPSNIRRIICSTSGGFPEPHLFWLENGEELNAINTTVSQDPETELYAVSSKLDFNMTTNHSFVCLIKYGHLRVNQTFNWNTPKQEHFPDNLLPSWAITLISANGIFVICCLTYCFAPRCRERRRNERLRRESVHPV	2
Round 2 CTLA4BP-5x3-6f (ligand) VIHVTKEVKEVATLSCGHNVSVEELAQTRIYWQKGKKMVLTMMSGDMNIWPEYKNRTIFDITNNLSIVILALRPSDEGTYECVVLEYEKDAFKREHLAEVMLSVKADFPTPSISDFEIPTSNIRRIICSTSGGFPEPHLSWLENGEELNAINTTASQDPETELYTVSSKLDFNMTTNHSFMCLIKYGHLRVNQTFNWNTPKQEHFPDNLLPSWAITLISANGIFVICCLAYCFAPGCRERKSNERLRRESVRPV	2
Round 2 CTLA4BP 2x3-h2 (ligand) VIHVTKEVKEVATLSCGHNVSVEELAQTRIYWQKEKKMVLTMMSGDMNIWPEYKNRTIFDITNNLSIVILALRPSDEGTYECVVLKYEKDAFKREHLAEVMLSVKADFPTPSISDFEIPPSNIRRIICSTPGGFPEPRLAWMEDGEELNAISTTVSQDPGTELYAVSSKLDFNMTTNHSFMCLIKYGHLRVNQTFNWNTTKQEHFPDNLLPSWAITLISVKGIFVICCLTYCFAPRWRERKSNERLRRESVRPV	0
Round 2 CTLA4BP 2x2-f3 (ligand) VIYVTKEVKEVATLSCGHNVSVEELAQTRIYWQKEKKMVLIMMSGDMNIWPEYKNRTIFDITNNLSIVILALRPSDEGTECVVLKYEKDAFKREHLAEVTLSVKADFPTPSISDFEIPPSNIRRIICSTSGGFPEPHLSWLENGEELNAINTTVSQDPGTELYTVSSKLDFNMTTNHSFMCLIKYGHLRVNQTFNWNTPKQEHFPDNLLPSWAITLISVNGIFVICCLTYCFAPRCRERRRNERLRRESVCPV	1
Round 2 CTLA4 A-H3-6 (ligand) GISQVTKSVKEMAALSCDYNISIDELARMRIYWQKDQQMVLSIISGQVEVWPEYKNRTFPDIINNLSLMILALRLSDKGTYTCVVQKNENGSFRREHLTSVTLSIRADFPVPSINDLGNPSPNIRRLICSTSGGFPRPHLYWLENGEELNATNTTLSQDPETKLYMISSELDFNMTSNHSFLCLVKYGDLTVSQTFYWQESKPTPSANQHLTWTIIIPVSAFGISVIIAVILTCLTCRNAAIRRQRRENEVEMQSCSQSP	1

The remaining lines, values ahead:

Binding Score	Binder
1	Round 2 CTLA4BP-5x3-11b (ligand) VIHVTKEVKEVATLSCGHNVSVEELAQTRIYWQKEKKMVLTMMSGDMNIWPEYKNRTIFDITNNLSIVILALRSSDEGTYECVVLKYEKDAFKREHLAEVTLSVKADFPTPSITDFEIPPSNIRRIICSTSGGFPEPHLSWLENGEELNAISTTVSQDPETELYTVSSKLDFNMTTNRSFVCLIKYGHLRVNQTFNWNTPKQEHFPDNLLPSWAITLISVNGIFVICCLTYCFAPRCRERRSNERLRRESVRPV
2	Round 2 CTLA4BP-5x4-11d (ligand) VIHVTKEVKEVATLSCGLNVSVEELAQTRIHWQKEKKMVLTMMSGDMNIWPEYKNRTIFDITNNLSIVILALRPSDEGTYECVVLKYDKDAFKREHLAEVTLSVKADFPTPSISDFEIPPSNIRRIICSTSGGFPEPHLSWLENGEELNAINTTVSQDPETELYTVSSKLDFNMTANHSFVCLIKYGHLRVNQTFNWNTPKQEHFPDNLLPSWAITLISVNGIFVICCLTYRFAPRCRERKSNERLRRESVRPV
2	Round 2 CTLA4BP-5x4-12c (ligand, residues 1-34 left out as the signal peptide; also called CTLA-4BP 5×4-12c; clone R2 CTLA-4BP 5×4-12c) VIHVTKEVKEVATLSCGHNVSVEELAQTRIHWQKEKKMVLTMMSGDMNIWPEYKNRTIFDITNNLSIVILALRPSDEGTYECVVLKYEKDAFKREHLAEVMLSVKADFPTPSISDFEIPPSNIRRIICSTSGGFPEPHLFWLENGEELNAINTTVSQDPETELYTVSSKLDFNMTTNHSFMCLIKYGHLRVNQTFNWNTPKQEHFPDNLLPSWAITLISANGIFVICCLTYRFAPRCRERKSNETLRRESVRPV
2	Round 2 CTLA4BP-5x8-1f (ligand) VIHVTKEVKEVATLSCGHNVSVEELAQTRIHWQKEKKMVLTMMSGDMNIWPEYKNRTIFDITNNLSIVILALRPSDEGTYECVVLKYEKDAFKREHLAEVMLSVKADFPTPSITDFEIPPSNIRRIICSASGGFPEPHLFWLENGEELNAINTTVSQDPETELYAVSSKLDFNMTTNHSFMCLIRYGHLRVNQTFNWNTPKQEHFPDNLLPSWAITLISVNGIFVICCLTYCFAPRCRERKSNERLRRESVRPV
2	Round 2 CTLA4BP-5x4-1f (ligand) VIHVTKEVKEVATLSCGHNVSVEELAQTRIHWQKEKKMVLTMMSGDMNIWPEYKNRTIFDITNNLSIVILALRPSDEGTYECVVLKYEKDAFKREHLAEVMLSVKADFPTPSISDFEIPTSNIRRIICSTSGGFPEPHLFWLENGEELNAINTTVSQDPETELYTVSSKLDFNMTTNHSFMCLIKYGHLRVNQTFNWNTPKQEHFPDNLLPSWAITLISVNGIFVICCLTYCFAPRCRERRRNERLRRESVCPV
2	Round 2 CTLA4BP-5x5-6e (ligand) VIHVTKEVKEVATLSCGHNVSVEELAQTRIHWQKEKKMVLTMMSGDMNIWPEYKNRTIFDITNNLSIVILALRPSDEGTYECVVLKYEKDAFKREHLAEVMLSVKADFPTPSITDFEIPPSNIRRIICSTSGGFPEPHLSWLENGEELNAISTTVSQDPETELYTVSSKLDFNMTTNHSFMCLIKYGHLRVNQTFNWNTTKQEHFPDNLLPSWAITLISANGIFVICCLTHCFAPRCRERKRNERLRRESVRPV
2	Round 2 CTLA4BP-5x6-9d (ligand) VIHVTKEVKEVATLSCGHNVSVEELAQTRIHWQKEKKMVLTMMSGDMNIWPEYKNRTIFDITNNLSIVILALRPSDEGTYECVVLKYEKDAFKREHLAEVMLSVKADFPTPSISDFEIPTSNIRRIICSTSGGFPEPHLSWLENGEELNAINTTVSQDPETELYTVSSKLDFNMTANHSFVCLIKYGHLRVNQTFNWNTPKQEHFPDNLLPSWAITLISVNGIFVICCLTYCFAPRCRERRRNERLRRESVRPV
2	Round 2 CTLA4BP-5x5-2e (ligand) VIHVTKEVKEVATLSCGLNVSVEELAQTRIHWQKEKKMVLTMMSGDMNIWPEYKNRTIFDITNNLSIVILALRPSDEGTYECVVLKYEKDAFKREHLAEVMLSVKADFPTPSISDFEIPPSNIRRIICSTSGGFPEPHLSWLENGEELNAINTTVSQDPETELYAVSSKLDFNMTTNHSFMCLIKYGHLRVNQTFNWNTPKQEHFPDNLLPSWAITLISVNGIFVICCLTYCFAPRCRERRRNETLRRESVRPV
2	Round 2 CTLA4BP-5x3-10e (ligand) VIHVTKEVKEVATLSCGHNVSVEELAQTRIYWQKEKKMVLTMMSGDMNIWPEYKNRTIFDITNNLSIVILALRPSDEGTYECVVLEYEKDAFKREHLAEVTLSVKADFPTPSISDFEIPPSNIRRIICSTSGGFPEPHLFWLENGEELNAINTTVSQDPETELYAVSSKLDFNMTTNHSFMCLIKYGHLRVNQTFNWNTPKQEHFPDNLLPSWAITLISANGIFVICCLTYCFAPRCRERKSNERLRRESVHPV
2	Round 2 CTLA4BP-5x9-12c (ligand) VIHVTKEVKEVATLSCGHNVSVEELAQTRIHWQKEKKMVLTMMSGDMNIWPEYKNRTIFDITNNLSIVILALRPSDEGTYECVVLKYEKDAFKREHLAEVMLSVKADFPTPSITDFEIPPSNIRRIICSTSGGFPEPHLSWLENGEELNAINTTASQDPETELYTVSSKLDFNMTTNHSFMCLIKYGHLRVNQTFNWNTPKQEHFPDNLLPSWAITLISVNGIFVICCLTYCFAPRCRERKSNERLRRESVRPV
